± gives the uncertainty stated by the source.
Experiment: amyloid nucleation score (Sup35N fusion, yeast selection) (log enrichment); library NNK1; higher = more nucleation; inactive = no reads after selection
Method in brief: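 The nucleation score is the log enrichment of output over input reads, calculated with DiMSum and centred on the mode score of non-aggregating sequences. Sequences with under 100 input reads were excluded. Reads came from Illumina sequencing of plasmid inserts from psi-negative yeast expressing Sup35N fused to peptides of 20 random codons, induced 24 hours with 100 μM copper sulfate and grown 7 days at 30°C without adenine and uracil.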

With RVVRKPCFPGVGRILSADLA as the substance, how does the amyloid nucleation score read?
Its amyloid nucleation score is 0.958 ± 0.59.

With RWDYDWNQVSCNDSRIGKLT as the substance, how does the amyloid nucleation score read?
The amyloid nucleation score was 0.565 ± 0.61.

Which amyloid nucleation score does the source give for RWGDHKQC here?
The amyloid nucleation score was 0.041 ± 0.41.

With RWNFFTFWFLW as the substance, how does the amyloid nucleation score read?
Its amyloid nucleation score is 0.048 ± 0.46.

For RWPDQCLLMLWMVLLFPSWE, which amyloid nucleation score is on record?
The amyloid nucleation score was -0.552 ± 0.28.

With RWQAFGTELYGTSWSFREYG as the substance, how does the amyloid nucleation score read?
The amyloid nucleation score was 0.148 ± 0.47.

For RWSLAWKIMCEL, which amyloid nucleation score is on record?
Its amyloid nucleation score is 0.055 ± 0.3.

For RWYVEPSSMFLSRLDGLFYK, which amyloid nucleation score is on record?
Its amyloid nucleation score is -0.702 ± 1.9.

With RYDSRFALPLDLS as the substance, how does the amyloid nucleation score read?
Its amyloid nucleation score is -0.245 ± 0.45.

Which amyloid nucleation score does the source give for RYFLEMISRYISRN here?
The amyloid nucleation score was “inactive”.

Which amyloid nucleation score does the source give for RYGAESELTPRSASHGYWKF here?
Its amyloid nucleation score is -0.313 ± 1.1.

For RYICSYCYALCGFGDYYGGK, which amyloid nucleation score is on record?
The amyloid nucleation score was 0.24 ± 0.34.

With RYLDSLYKPRYYYQMVAIYG as the substance, how does the amyloid nucleation score read?
The amyloid nucleation score was 0.004 ± 0.41.

For RYLIPTYF, which amyloid nucleation score is on record?
Its amyloid nucleation score is -1.76 ± 0.57.

Which amyloid nucleation score does the source give for RYMDMLLRTDWDWLVSQCRF here?
Its amyloid nucleation score is -0.344 ± 0.33.

For RYNCVDV, which amyloid nucleation score is on record?
The amyloid nucleation score was -0.765 ± 0.52.

Which amyloid nucleation score does the source give for RYNMPFYRDRRFCFFEKGLG here?
Its amyloid nucleation score is -0.077 ± 0.77.

Which amyloid nucleation score does the source give for RYPPG here?
Its amyloid nucleation score is -0.077 ± 1.1.

With RYSFLANGASSFGCVVLFSL as the substance, how does the amyloid nucleation score read?
Its amyloid nucleation score is 0.503 ± 0.93.

With RYSGFLSVSLL as the substance, how does the amyloid nucleation score read?
Its amyloid nucleation score is -0.087 ± 1.

For RYSYFSSASCLRYRAPKGRG, which amyloid nucleation score is on record?
Its amyloid nucleation score is 0.098 ± 0.32.

Which amyloid nucleation score does the source give for RYTEAASICRLVLGGQGVRI here?
The amyloid nucleation score was -0.155 ± 0.96.

For RYTIDLMSFNIKFWSHTLLH, which amyloid nucleation score is on record?
The amyloid nucleation score was -0.869 ± 1.5.

For RYVNRT, which amyloid nucleation score is on record?
Its amyloid nucleation score is -0.497 ± 1.2.

Which amyloid nucleation score does the source give for RYVTDSGVGSIPRYLIKCSR here?
Its amyloid nucleation score is -0.111 ± 0.42.

Which amyloid nucleation score does the source give for RYWLYVKFGWYLTDGFYSGS here?
Its amyloid nucleation score is 0.665 ± 0.29.

For RYYLISEPILWIYGY, which amyloid nucleation score is on record?
The amyloid nucleation score was -0.031 ± 0.33.

With RYYNFFMGLTWG as the substance, how does the amyloid nucleation score read?
The amyloid nucleation score was -0.395 ± 0.48.

With RYYRVLLKFVLLSLVCTRYA as the substance, how does the amyloid nucleation score read?
The amyloid nucleation score was 0.578 ± 0.19.

Which amyloid nucleation score does the source give for SAAVGLLVHQYRSSELQLFN here?
Its amyloid nucleation score is 0.136 ± 1.

For SADPFVFVALQWNHGVGSWR, which amyloid nucleation score is on record?
Its amyloid nucleation score is 4.06 ± 0.069.

With SADPSNYRERIFLKLMKLHG as the substance, how does the amyloid nucleation score read?
The amyloid nucleation score was -0.514 ± 0.37.

With SAFSLIGLIVMNAGK as the substance, how does the amyloid nucleation score read?
Its amyloid nucleation score is 6.04 ± 0.076.

Which amyloid nucleation score does the source give for SAILVLFEVHFMAPLLCHYL here?
Its amyloid nucleation score is 0.208 ± 0.42.

With SALHVHRVKGSRREVSRDT as the substance, how does the amyloid nucleation score read?
Its amyloid nucleation score is -0.072 ± 0.31.

Which amyloid nucleation score does the source give for SALSGWVANSCYEVRGLRNV here?
Its amyloid nucleation score is “inactive”.

For SANMKYRTLKQSLG, which amyloid nucleation score is on record?
The amyloid nucleation score was 0.176 ± 0.52.

Which amyloid nucleation score does the source give for SANRTHNWY here?
Its amyloid nucleation score is -0.451 ± 0.44.

For SAPIDISMQLC, which amyloid nucleation score is on record?
Its amyloid nucleation score is -0.18 ± 1.7.

For SARHSMAEAMEYYIFGWVPR, which amyloid nucleation score is on record?
The amyloid nucleation score was -1.16 ± 1.2.

For SAVQGCNGRCCYFGRGWWSG, which amyloid nucleation score is on record?
The amyloid nucleation score was 3.4 ± 0.083.

For SCDFILLLAVT, which amyloid nucleation score is on record?
Its amyloid nucleation score is 0.352 ± 0.36.

With SCDMAEFSEDLTLCLLNHK as the substance, how does the amyloid nucleation score read?
The amyloid nucleation score was -0.651 ± 1.7.

For SCGCYKSSLVNLL, which amyloid nucleation score is on record?
Its amyloid nucleation score is 0.328 ± 0.9.

For SCGLTCDAEYGRGFPGLCMM, which amyloid nucleation score is on record?
The amyloid nucleation score was 0.001 ± 1.1.

Which amyloid nucleation score does the source give for SCGNNYTSV here?
The amyloid nucleation score was -0.236 ± 0.2.

With SCKLIDRAILICWRSPTALV as the substance, how does the amyloid nucleation score read?
Its amyloid nucleation score is 0.109 ± 1.6.

Which amyloid nucleation score does the source give for SCLPDQMKVVVPLMWLKFSR here?
The amyloid nucleation score was -0.266 ± 0.33.

Which amyloid nucleation score does the source give for SCLYQGCYLNCVIDIMGCGL here?
The amyloid nucleation score was 5.83 ± 0.089.

For SCPGK, which amyloid nucleation score is on record?
The amyloid nucleation score was 0.001 ± 0.44.

For SCPVPKLLAIGLSHVRSFGF, which amyloid nucleation score is on record?
The amyloid nucleation score was -0.47 ± 0.42.

With SCPWLDSSLCFMNVGVLIYK as the substance, how does the amyloid nucleation score read?
The amyloid nucleation score was 3.37 ± 0.062.

For SCQATLLFLSYSSNVGLIST, which amyloid nucleation score is on record?
The amyloid nucleation score was -0.267 ± 1.1.

With SCSLITQGFRYPWLIYHRCY as the substance, how does the amyloid nucleation score read?
Its amyloid nucleation score is 0.436 ± 0.93.

Which amyloid nucleation score does the source give for SCSPGTYSWFNWWYKSPGVE here?
Its amyloid nucleation score is -0.021 ± 0.65.

For SCSYLSKYTYRREMVYGNEV, which amyloid nucleation score is on record?
The amyloid nucleation score was 0.002 ± 0.22.

Which amyloid nucleation score does the source give for SCTPWAVLFMLKSALGSLRG here?
The amyloid nucleation score was 0.708 ± 0.71.

For SCVLRRNSHRIMDSYPRYGQ, which amyloid nucleation score is on record?
The amyloid nucleation score was 0.151 ± 0.29.

With SDAGARKIIFCFEIITQHPV as the substance, how does the amyloid nucleation score read?
The amyloid nucleation score was -0.235 ± 0.42.

For SDASHHHRYRESHDYCFFRK, which amyloid nucleation score is on record?
The amyloid nucleation score was 0.272 ± 0.4.

Which amyloid nucleation score does the source give for SDFTIINFQYFLASCCTGYV here?
Its amyloid nucleation score is 7.602 ± 0.048.

With SDIMGTVLSYFGINLVYAPC as the substance, how does the amyloid nucleation score read?
The amyloid nucleation score was “inactive”.

Which amyloid nucleation score does the source give for SDKLTRFSTRVFR here?
The amyloid nucleation score was -0.586 ± 0.39.

With SDLMWVLSCESLRITHRLVG as the substance, how does the amyloid nucleation score read?
The amyloid nucleation score was 1.93 ± 0.56.

With SDMYIL as the substance, how does the amyloid nucleation score read?
Its amyloid nucleation score is 0.807 ± 0.43.

For SDNTMSPKLCLMASWVRIST, which amyloid nucleation score is on record?
Its amyloid nucleation score is 0.418 ± 0.23.

With SDNVSRLRILDR as the substance, how does the amyloid nucleation score read?
Its amyloid nucleation score is 1.93 ± 0.47.

Which amyloid nucleation score does the source give for SDRNERSVLSTCFGGCVPTG here?
The amyloid nucleation score was 1.14 ± 0.24.

Which amyloid nucleation score does the source give for SDVLYIFTYMDKCQRSRLGV here?
Its amyloid nucleation score is 0.096 ± 0.26.

Which amyloid nucleation score does the source give for SDVWGWWGRSRVTADYFADV here?
Its amyloid nucleation score is -1.17 ± 1.7.

For SELIAQDMPQIENLTVDAAW, which amyloid nucleation score is on record?
Its amyloid nucleation score is -0.38 ± 0.35.

Which amyloid nucleation score does the source give for SEMGYPGWTGKERKRLSNWA here?
The amyloid nucleation score was -0.989 ± 0.8.

For SEQSMTY, which amyloid nucleation score is on record?
The amyloid nucleation score was “inactive”.

Which amyloid nucleation score does the source give for SETQNRLS here?
Its amyloid nucleation score is -0.024 ± 0.33.

Which amyloid nucleation score does the source give for SFAADLFPRLVKACYSGILM here?
The amyloid nucleation score was -0.413 ± 1.5.

For SFCAYFVAGIAGNIRVS, which amyloid nucleation score is on record?
The amyloid nucleation score was 0.098 ± 0.42.

With SFCMMLVSLVFSSKKISHHA as the substance, how does the amyloid nucleation score read?
The amyloid nucleation score was 0.877 ± 0.49.

For SFDRCCRGFAWISYGEQTAY, which amyloid nucleation score is on record?
Its amyloid nucleation score is 0.219 ± 0.53.

With SFFGFMVMTSRDDRFRLQ as the substance, how does the amyloid nucleation score read?
Its amyloid nucleation score is 3.04 ± 0.085.

With SFFLLPMWLIVGSRGHQRRT as the substance, how does the amyloid nucleation score read?
The amyloid nucleation score was “inactive”.

For SFKWLGTFRYSYTKSTEHVW, which amyloid nucleation score is on record?
Its amyloid nucleation score is -0.534 ± 1.2.

With SFLNINPRQFSWIYCPLVVY as the substance, how does the amyloid nucleation score read?
Its amyloid nucleation score is 2.94 ± 0.23.

Which amyloid nucleation score does the source give for SFSIN here?
Its amyloid nucleation score is 0.238 ± 0.29.

Which amyloid nucleation score does the source give for SFSSPHLPYTCGSSIG here?
Its amyloid nucleation score is 0.258 ± 0.66.

Which amyloid nucleation score does the source give for SFSTKPTCRPPILHSLERVT here?
Its amyloid nucleation score is 3.62 ± 0.064.

Reference: the supplement of paper PMC12042874
